Test results as given in EP4545563A1 (Foreseen Technology (Beijing) Co., Ltd., dated 2024).
Numbering of substitutions follows the chain as printed.

T1: ITGA2-His (human, UniProt P17301 30-1132, limits assumed)
T1 construct: also called ITGA2 protein; not shown: His tag
T1 sequence (looked up): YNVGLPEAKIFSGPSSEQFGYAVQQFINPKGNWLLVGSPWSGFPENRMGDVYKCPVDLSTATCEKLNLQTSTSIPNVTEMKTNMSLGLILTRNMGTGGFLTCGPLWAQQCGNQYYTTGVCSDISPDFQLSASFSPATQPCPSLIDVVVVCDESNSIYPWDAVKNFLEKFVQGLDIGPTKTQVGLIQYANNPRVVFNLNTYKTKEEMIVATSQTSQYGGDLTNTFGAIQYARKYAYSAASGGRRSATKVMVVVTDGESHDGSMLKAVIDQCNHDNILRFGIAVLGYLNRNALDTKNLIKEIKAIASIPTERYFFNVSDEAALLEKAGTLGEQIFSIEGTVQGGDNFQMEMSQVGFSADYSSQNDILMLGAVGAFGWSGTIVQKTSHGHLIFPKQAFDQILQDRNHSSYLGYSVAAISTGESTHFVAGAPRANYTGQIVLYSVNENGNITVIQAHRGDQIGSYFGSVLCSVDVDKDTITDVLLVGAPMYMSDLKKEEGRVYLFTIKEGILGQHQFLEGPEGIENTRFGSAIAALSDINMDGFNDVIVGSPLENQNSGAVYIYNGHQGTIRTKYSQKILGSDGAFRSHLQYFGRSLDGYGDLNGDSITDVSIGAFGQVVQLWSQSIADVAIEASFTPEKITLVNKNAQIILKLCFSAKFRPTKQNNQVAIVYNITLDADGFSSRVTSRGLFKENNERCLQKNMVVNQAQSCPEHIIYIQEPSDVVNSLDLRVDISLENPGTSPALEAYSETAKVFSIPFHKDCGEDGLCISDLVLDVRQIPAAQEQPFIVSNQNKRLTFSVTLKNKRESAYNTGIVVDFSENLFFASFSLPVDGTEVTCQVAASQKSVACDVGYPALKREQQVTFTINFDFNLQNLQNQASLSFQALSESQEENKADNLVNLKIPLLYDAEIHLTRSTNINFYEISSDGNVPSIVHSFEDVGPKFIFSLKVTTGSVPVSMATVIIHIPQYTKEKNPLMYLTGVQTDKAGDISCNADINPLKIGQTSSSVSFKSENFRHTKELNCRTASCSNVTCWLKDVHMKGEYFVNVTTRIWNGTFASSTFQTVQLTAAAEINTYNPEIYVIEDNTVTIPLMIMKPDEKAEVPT

T2: ITGA2 protein on the surface of human tumor cells (HuCCT1, A431) (human, UniProt P17301 30-1181)
T2 construct: whole, on cells; Endogenously expressed on the cell lines; the cell line of each entry is named under assay or readout; also called Integrin alpha-2; ITGA2-positive HuCCT1 cells
T2 sequence (looked up): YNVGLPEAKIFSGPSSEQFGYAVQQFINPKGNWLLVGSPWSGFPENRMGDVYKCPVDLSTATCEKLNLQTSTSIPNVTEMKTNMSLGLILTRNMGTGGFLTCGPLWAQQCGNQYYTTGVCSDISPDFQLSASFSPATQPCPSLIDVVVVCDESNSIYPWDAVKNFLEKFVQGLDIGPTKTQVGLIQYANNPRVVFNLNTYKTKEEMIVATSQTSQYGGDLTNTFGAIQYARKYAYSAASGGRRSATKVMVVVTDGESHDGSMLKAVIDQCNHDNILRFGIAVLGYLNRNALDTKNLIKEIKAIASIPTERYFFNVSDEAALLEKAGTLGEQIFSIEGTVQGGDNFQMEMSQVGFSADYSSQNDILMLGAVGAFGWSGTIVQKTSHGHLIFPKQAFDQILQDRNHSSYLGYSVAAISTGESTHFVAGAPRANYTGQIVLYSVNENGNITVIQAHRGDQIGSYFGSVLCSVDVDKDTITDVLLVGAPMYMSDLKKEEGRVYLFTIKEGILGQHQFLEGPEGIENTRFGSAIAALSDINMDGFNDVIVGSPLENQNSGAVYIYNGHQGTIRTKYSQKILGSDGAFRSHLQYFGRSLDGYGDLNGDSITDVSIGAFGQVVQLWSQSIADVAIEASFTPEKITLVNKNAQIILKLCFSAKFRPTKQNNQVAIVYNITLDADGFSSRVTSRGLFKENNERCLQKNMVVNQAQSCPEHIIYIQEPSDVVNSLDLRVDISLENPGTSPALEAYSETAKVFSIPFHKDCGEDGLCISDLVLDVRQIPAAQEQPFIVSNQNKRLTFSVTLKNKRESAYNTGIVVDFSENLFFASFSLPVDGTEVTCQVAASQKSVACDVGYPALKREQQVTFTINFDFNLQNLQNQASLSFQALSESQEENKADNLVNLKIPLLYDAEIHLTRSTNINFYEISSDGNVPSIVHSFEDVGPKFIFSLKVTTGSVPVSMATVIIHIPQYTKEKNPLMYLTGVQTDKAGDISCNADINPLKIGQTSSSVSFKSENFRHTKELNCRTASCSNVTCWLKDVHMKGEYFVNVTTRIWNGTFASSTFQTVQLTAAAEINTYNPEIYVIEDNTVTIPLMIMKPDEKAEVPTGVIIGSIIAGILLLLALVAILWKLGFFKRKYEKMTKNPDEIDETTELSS

B1: Humanized antibody FS002-C15 (antibody, human IgG1, kappa, V domains shown)
VH: QLQLQESGPGLVKPSETLSLTCTVSGGSISSSSYYWGWIRQPPGKGLEWIGSIYYSGSTYYNPSLKSRVTISVDTSKNQFSLKLSSVTAADTAVYYCARLTIFGVVLYWGQGTLVTVSS
VL: EIVLTQSPATLSLSPGERATLSCQASQTFSDYLAWYQQKPGQAPRLLIYDASTRATGIPARFSGSGSGTDFTLTISSLEPEDFAVYYCQQRSHWPPGYTFGQGTRVEIKR
notes: IgG1 heavy chain, kappa light chain
B2: Humanized antibody FS002-A1 (antibody, V domains shown)
VH: QVQLVQSGAEVKKPGASVKVSCKASGYTFTSYYMHWVRQAPGQGLEWMGIINPSGGSTSYAQKFQGRVTMTRDTSTSTVYMELSSLRSEDTAVYYCARDISGSYQTDAFDIWGQGTMVTVSS
VL: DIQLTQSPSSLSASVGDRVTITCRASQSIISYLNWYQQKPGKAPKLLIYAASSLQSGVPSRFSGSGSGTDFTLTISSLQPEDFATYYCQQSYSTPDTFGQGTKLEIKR
notes: IgG1 heavy chain, kappa light chain; expressed in ExpiCHO-s cells, Protein A purified
B3: Humanized antibody FS002-C153 (antibody, human IgG1, lambda, V domains shown)
VH: QVQLQQWGAELVKPGASVKLSCTASGFNIKDTYMHWVKQRPEQGLEWIGRIDPANGNTKYDPKFQGKATITADTSSNTAYLQLSSLTSEDTAVYYCARSYYRYDGYFDVWGAGTMVTVSS
VL: QSALTQPASVSGSPGQSITISCTGTSSDVGGYNYVSWYQQHPGKAPKLMIYDVSNRPSGVSNRFSGSKSGNTASLTISGLQAEDEADYYCSSFTTITTRVFGGGTKLTVLG
notes: IgG1 heavy chain, lambda light chain
B4: Humanized antibody FS002-C375 (antibody, human IgG1, kappa, V domains shown)
VH: QVQLQESGPGLVKPSQTLSLTCTVSGGSISSGGYYWSWIRQHPGKGLEWIGYIYYSGSTYYNPSLKSRVTISVDTSKNQFSLKLSSVTAADTAVYYCARVGVALHYGMDVWGQGTTVTVSS
VL: EIVLTQSPATLSLSPGERATLSCRASQSVSSYLAWYQQKPGQAPRLLIYDASNRATGIPARFSGSGSGTDFTLTISSLEPEDFAVYYCQQRSNWPLTFGGGTKVEIKR
notes: as for B1
B5: Humanized antibody FS002-C58 (antibody, human IgG1, kappa, V domains shown)
VH: EVQLLESGGGVVQPGRSLRLSCAASGFTFSSYAMHWVRQAPGKGLEWVAVISYDGSNKYYADSVKGRFTISRDNSKNTLYLQMNSLRAEDTAVYYCARGKYNWFDPWGQGTLVTVSS
VL: B4 VL with S30Y, Y32S, R45K, I58V, V85L, Q90H, S92Q, N93H
notes: as for B1
B6: Humanized antibody FS002-A36 (antibody, human IgG1, kappa, V domains shown)
VH: QVQLQESGPGLVKPSQTLSLTCTVSGGSISSGGYYWSWIRQHPGKGLEWIGYIYYSGSTYYNPSLKSRVTISVDTSKNQFSLKLSSVTAADTAVYYCARVRLLGGGFDIWGQGTTVTVSS
VL: B4 VL with S31T, A51T, N53I
notes: as for B1
B7: Humanized antibody FS002-C330 (antibody, V domains shown)
VH: QLQLQESGPGLVKPSGTLSLTCAVSGGSISSSNWWSWVRQPPGKGLEWIGEIYHSGSTNYNPSLKSRVTISVDKSKNQFSLKLSSVTAADTAVYYCARAHSRYYYGLDYWGQGTLVTVSS
VL: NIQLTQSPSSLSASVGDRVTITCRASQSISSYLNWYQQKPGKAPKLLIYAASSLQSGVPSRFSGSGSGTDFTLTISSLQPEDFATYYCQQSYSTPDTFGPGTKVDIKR
notes: as for B1
B8: Vatelizumab (antibody, V domains shown)
VH: QVQLQESGPGLVKPSETLSLTCTVSGFSLTNYGIHWIRQPPGKGLEWLGVIWARGFTNYNSALMSRLTISKDNSKNQVSLKLSSVTAADTAVYYCARANDGVYYAMDYWGQGTLVTVSS
VL: DFVMTQSPAFLSVTPGEKVTITCSAQSSVNYIHWYQQKPDQAPKKLIYDTSKLASGVPSRFSGSGSGTDYTFTISSLEAEDAATYYCQQWTTNPLTFGQGTKVEIK
B9: Humanized antibody FS002-C241 (antibody, human IgG1, lambda, V domains shown)
VH: RLQLQESGPGLVKPSETLSLTCTVSGGSISSSSYYWGWIRQPPGKGLEWIGSIYYSGSTYYNPSLKSRVTISVDTSKNQFSLKLSSVTAADTAVYYCARRYSYGRDAFDIWGQGTMVTVSS
VL: QSALTQPASVSGSPGQSITISCSGTSSDIGRYNYVSWYQQHPGKAPKLLIFDVSNRPSGVSNRFSGSKSGNTASLTISGLQAEDEADYYCSSYTSTVPYVFGTGTRVAVQG
notes: as for B3
B10: Humanized antibody FS002-C9 (antibody, human IgG1, kappa, V domains shown)
VH: QVQLLESGPGLVKPSQTVSLTCTVSGVSISRGVYSWSWIRQHPGKGLEWIGFIDYNGRTDYNPSLKSRVTISQDTSKNDFSLKLTSVTAADTAIYYCARGLHAFDIWGQGTMVTVSS
VL: NIQMTQSPPSLSASVGDRVAITCRASQDISNSLAWYQQKSGQPPKLLLYDVSKLERGVPSRFSGSGSRTDYTLTISSLQPEDFATYYCQQYSSDPTFGQGSKLEFKR
notes: as for B1
B11: Humanized antibody FS002-C417 (antibody, human IgG1, kappa, V domains shown)
VH: EVQLVESGGVVVQPGGSLRLSCAASGFTFDDYTMHWVRQAPGKGLEWVSLISWDGGSTYYADSVKGRFTISRDNAKNTLYLQMNSLRAEDTAVYYCARDTGYAMDVWGQGTMVTVSS
VL: NIQMTQSPSSLSASVGDRVTITCRASQSISSYLNWYQQKPGKAPKLLIYAASSLQSGVPSRFSGSGSGTDFTLTISSLQPEDFASYYCQQSYSSWAFGQGTKVEIKR
notes: as for B1
B12: Humanized antibody FS002-C216 (antibody, human IgG1, kappa, V domains shown)
VH: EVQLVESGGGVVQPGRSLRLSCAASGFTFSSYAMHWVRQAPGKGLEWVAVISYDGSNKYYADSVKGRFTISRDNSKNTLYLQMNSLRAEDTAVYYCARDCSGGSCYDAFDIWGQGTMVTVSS
VL: EIVLTQSPATLSLSPGERATLSCRASQSVSSYLAWYQQKPGQAPRLLIYDASNRATGIPARFSGSGSGTDFTLTISSLEPEDFAVYYCQQRTNWLMYTFGQGTKLEIKR
notes: as for B1
B13: Humanized antibody FS002-A10 (antibody, human IgG1, kappa, V domains shown)
VH: QVQLQQSGPGLVKPSQTLSLTCAISGDSVSSDSAAWNWIRQSPSRGLEWLGRTYYRSKWYNDYAVSVKSRITINPDTSKNQFSLQLNSVTSDDTAVYYCARGSWAAPWLWGQGTLVTVSS
VL: NIQLTQSPPFLSASVGDRVTITCRASQDISSFLAWYQQKPGKAPNLLIHAATTLQSGVPSRFSGSGSGTEFTLTISSLRPEDFATYYCQQLHTYPITFGQGTRLEIKR
notes: as for B1
B14: Humanized antibody FS002-A15 (antibody, human IgG1, kappa, V domains shown)
VH: RLQLQESGPGLVKPSQTLSLTCTVSGGSISSGGYYWSWIRQHPGKGLEWIGYIYYSGSTYYNPSLKSRVTISVDTSKNQFSLKLSSVTAADTAVYYCARATIYGYFDYWGQGTLVTVSS
VL: EIVLTQSPATLPLSPGERATLSCRASQSVGFYLAWYQQKPGQPPRLLFYDASKRATGIPARFSASGSGTDFTLTISGLEPEDFAVYYCQHRISWPLTFGQGTKVEVKR
notes: as for B1

What was measured:
ITGA2-His = target: T1, ITGA2-His; experiment: ELISA, plate coated with 2 ug/mL ITGA2-His, anti-human IgG-Fc-HRP detection
[1] = target: T2, ITGA2 protein on the surface of human …; experiment: flow cytometry on HuCCT1 cells, goat anti-human IgG (H+L) secondary antibody

Binder | EC50 (ITGA2-His) | EC50 [1]
B1 | 0.044 nM | 2.13 nM
B2 | 0.029 nM | 0.653 nM
B3 | 0.087 nM | 3.63 nM
B4 | 0.073 nM | 2.17 nM
B5 | 0.279 nM | 9.48 nM
B6 | 0.022 nM | 0.793 nM
B7 | 0.103 nM | 2.07 nM
B8 | 0.023 nM | 0.793 nM
B9 | 0.116 nM | 2.41 nM
B10 | 12.1 nM | 34.6 nM
B11 | 0.156 nM | 68.4 nM
B12 | 0.073 nM | 0.987 nM
B13 | 0.021 nM | 1.13 nM
B14 | 0.028 nM | 0.927 nM
